The source of these data is US9675789B2, “Embeddable micro-needle patch for transdermal drug delivery and method of manufacturing the same” (NATIONAL CHENG KUNG UNIVERSITY, priority 2012, dated 2017).

The assay concerns IgG antibodies induced by ovalbumin. The assay is described as follows: immunity test: IgG antibodies induced by ovalbumin in blood serum, ELISA 450 nm absorbance. Type of assay: in vivo, sprague dawley (SD) rats. To be noted: SD rats, 1 mg ovalbumin at zero and fourteenth day, seventh day. Here is the method:
In another aspect of the embodiment, sprague dawley (SD) rats having four to six weeks of age are divided into three groups. Immune response is induced at zero day and fourteenth days by respectively encapsulating 1 mg of ovalbumin in the embeddable micro-needle patch for transdermal drug delivery, injecting saline in muscles, and injecting 1 mg of ovalbumin solution in muscles so as to produce correspondingly IgG antibodies, and blood is drawn from venous sinus under collarbones of the rats at zero day, seventh day, fourteenth day and twenty-first day. The drawn blood is detected by ELISA (enzyme-linked immunosorbent assay) to obtain 450 nm absorbance such that the contents of IgG antibodies antibody induced by ovalbumin in blood serum are determined.
A general note: ELISA stands for enzyme-linked immunosorbent assay.

B1: ovalbumin (protein, UniProt P01012 2-386, looked up)
Ovalbumin: GSIGAASMEFCFDVFKELKVHHANENIFYCPIAIMSALAMVYLGAKDSTRTQINKVVRFDKLPGFGDSIEAQCGTSVNVHSSLRDILNQITKPNDVYSFSLASRLYAEERYPILPEYLQCVKELYRGGLEPINFQTAADQARELINSWVESQTNGIIRNVLQPSSVDSQTAMVLVNAIVFKGLWEKAFKDEDTQAMPFRVTEQESKPVQMMYQIGLFRVASMASEKMKILELPFASGTMSMLVLLPDEVSGLEQLESIINFEKLTEWTSSNVMEERKIKVYLPRMKMEEKYNLTSVLMAMGITDVFSSSANLSGISSAESLKISQAVHAAHAEINEAGREVVGSAEAGVDAASVSEEFRADHPFLFCIKHIATNAVLFFGRCVSP
notes: 1 mg of ovalbumin solution injected in muscles, conventional muscle injection comparison group
Take B1: the “expression of induced IgG antibodies in blood serum compared with saline control group” value is on record as “can be discovered”.
